# Data from patent US8198236B2, “Methods and compositions for the treatment of cancer” (Washington University, priority 2007, dated 2012).
# B1: MESD (12-195): Truncated mouse Mesd mutant lacking the N-terminal region (protein)
# chain: RKKKDIRDYNDADMARLLEQWEKDDDIEEGDLPEHKRPSAPIDFSKLDPGKPESILKMTKKGKTLMMFVTVSGNPTEKETEEITSLWQGSLFNANYDVQRFIVGSDRAIFMLRDGSYAWEIKDFLVSQDRCAEVTLEGQMYPGKGGGSKEKNKTKPEKAKKKEGDRKPRASKEDNRAGSRREDL
# modifications: left off: small tags and cut ends
# notes: Truncated mouse Mesd mutant lacking the N-terminal region
# B2: Mesd (12-155): Truncated mouse Mesd mutant lacking both the N-terminal and C-terminal regions (protein)
# chain: RKKKDIRDYNDADMARLLEQWEKDDDIEEGDLPEHKRPSAPIDFSKLDPGKPESILKMTKKGKTLMMFVTVSGNPTEKETEEITSLWQGSLFNANYDVQRFIVGSDRAIFMLRDGSYAWEIKDFLVSQDRCAEVTLEGQMYPGK
# modifications: left off: small tags and cut ends
# notes: Truncated mouse Mesd mutant lacking both the N-terminal and C-terminal regions
# What was measured:
# [1] = molecular target: T1, LRP6 (Homo sapiens, UniProt O75581); experiment: Competition for 125I-Mesd binding to cell surface LRP6
# T1 construct: expressed in transfected cells; host or cells: human HT1080 cells, retroviral vector pLNCX2
# T1 sequence (O75581 20-1613): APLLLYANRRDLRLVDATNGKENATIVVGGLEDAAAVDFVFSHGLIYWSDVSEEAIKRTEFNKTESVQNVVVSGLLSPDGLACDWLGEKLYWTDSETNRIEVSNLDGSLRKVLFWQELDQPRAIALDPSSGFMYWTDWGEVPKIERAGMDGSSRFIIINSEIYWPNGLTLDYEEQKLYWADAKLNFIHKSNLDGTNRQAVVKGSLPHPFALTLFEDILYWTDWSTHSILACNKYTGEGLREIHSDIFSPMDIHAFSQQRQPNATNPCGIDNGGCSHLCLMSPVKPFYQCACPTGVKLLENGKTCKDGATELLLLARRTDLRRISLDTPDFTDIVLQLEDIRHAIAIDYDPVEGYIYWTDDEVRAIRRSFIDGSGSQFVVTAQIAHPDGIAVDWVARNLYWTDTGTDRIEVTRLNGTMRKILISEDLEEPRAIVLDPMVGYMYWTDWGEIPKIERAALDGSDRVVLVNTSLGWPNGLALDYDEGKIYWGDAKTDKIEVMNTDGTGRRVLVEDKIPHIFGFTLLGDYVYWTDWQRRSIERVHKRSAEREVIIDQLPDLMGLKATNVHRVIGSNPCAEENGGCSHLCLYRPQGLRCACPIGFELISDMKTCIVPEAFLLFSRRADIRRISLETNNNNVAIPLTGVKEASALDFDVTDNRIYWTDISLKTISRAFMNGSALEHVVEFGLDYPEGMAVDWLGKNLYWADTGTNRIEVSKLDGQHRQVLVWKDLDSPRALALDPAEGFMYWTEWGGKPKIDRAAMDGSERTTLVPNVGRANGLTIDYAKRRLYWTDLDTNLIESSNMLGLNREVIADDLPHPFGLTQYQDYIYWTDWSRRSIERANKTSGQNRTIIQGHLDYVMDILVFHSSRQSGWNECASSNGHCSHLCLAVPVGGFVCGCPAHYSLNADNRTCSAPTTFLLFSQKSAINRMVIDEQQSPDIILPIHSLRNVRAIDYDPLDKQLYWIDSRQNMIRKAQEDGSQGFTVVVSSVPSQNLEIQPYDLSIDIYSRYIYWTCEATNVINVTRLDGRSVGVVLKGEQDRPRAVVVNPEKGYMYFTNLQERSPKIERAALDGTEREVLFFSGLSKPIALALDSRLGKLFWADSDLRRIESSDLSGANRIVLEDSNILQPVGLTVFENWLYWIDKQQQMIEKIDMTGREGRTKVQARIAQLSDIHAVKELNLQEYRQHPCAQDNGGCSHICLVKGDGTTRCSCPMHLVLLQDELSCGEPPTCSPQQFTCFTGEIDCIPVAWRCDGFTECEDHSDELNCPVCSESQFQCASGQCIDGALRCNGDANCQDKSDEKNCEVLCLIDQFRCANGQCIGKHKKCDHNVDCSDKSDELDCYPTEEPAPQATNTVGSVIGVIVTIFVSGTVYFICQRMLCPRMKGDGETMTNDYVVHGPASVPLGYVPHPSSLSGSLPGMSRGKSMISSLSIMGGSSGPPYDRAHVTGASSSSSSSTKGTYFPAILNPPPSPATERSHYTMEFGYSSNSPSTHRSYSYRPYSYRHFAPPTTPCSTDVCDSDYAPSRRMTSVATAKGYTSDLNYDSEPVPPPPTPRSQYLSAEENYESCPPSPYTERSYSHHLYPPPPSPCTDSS
# Description: (§1) To examine whether Mesd binds with high affinity to most members of the LDLR family at the cell surface, we performed cell surface ligand binding experiments with cells stably transduced with LRP6 cDNA. Human HT1080 cells, which express undetectable levels of LRP6, were transduced with a viral vector alone (pLNCX2) or with vector containing LRP6 cDNA (Li, Y., Oncogene 23: 9129-9135, 2004) and used for ^125I-Mesd binding (FIG. 1A). ^125I-Mesd (5 nM) reached maximal binding after 2 hours incubation at 4° C. with LRP6-expressing HT1080 cells (FIG. 1A).
# (§2) Cells (2×10^5) were seeded into 12-well dishes 1 day prior to assay. Ligand-binding buffer (minimal Eagle's medium containing 0.6% BSA with a different concentration of radioligand, 0.6 ml/well) was added to cell monolayers, in the absence or the presence of 500 nM unlabeled RAP or 500 nM unlabeled Mesd, followed with incubation for 0-4 hours at 4° C. Thereafter, overlying buffer containing unbound ligand was removed, and cell monolayers were washed and lysed in low-SDS lysis buffer (62.5 mM Tris-HCl pH 6.8, 0.2% SDS, 10% v/glycerol) and counted.
# We performed binding of 5 nM ^125I-Mesd (5 nM) to cell surface LRP6 in the presence of various concentrations of excess unlabeled RAP or 500 nM unlabeled Mesd (FIG. 8B). RAP inhibited ^125I-Mesd binding in a dose-dependent manner with ˜60% inhibition achieved with 500 nM RAP, whereas the same concentration of unlabeled Mesd inhibited >90% of ^125I-Mesd binding (FIG. 8B). […] The lower affinity of RAP to cell surface LRP6 may also contribute to its lower efficiency in inhibition of Mesd binding.
# In FIG. 8A, binding of ^125I-RAP (5 nM) to LRP6-transduced HT1080 cells and the control cells was carried out for 4 hours at 4° C. in the absence (total) or presence of 500 nM RAP, or 500 nM Mesd. In FIG. 8B, binding of^125I-Mesd (5 nM) to LRP6-transduced HT1080 cells was carried out for 2 hours at 4° C. in the absence (total) or presence of various concentrations of RAP or 500 nM Mesd. (C) LRP6-mediated ^125I-Mesd (5 nM) degradation was carried out for 4 hours at 37° C. in the absence or presence of 500 nM Mesd or 500 nM RAP. Values are the means of triple determinations with the s.d. indicated by error bars.
# (§3) In order to investigate the binding of Mesd polypeptide and an Mesd oligopeptide to either LRP5 or LRP6, binding assays were performed using ^125I-Mesd or ^125I-DKK1 (FIG. 10).
# [2] = molecular target: LRP5 (Homo sapiens, UniProt O75197); experiment: 125I-DKK1 binding to LRP5; conditions: FIG. 10B
# LRP5, sequence (O75197 32-1615): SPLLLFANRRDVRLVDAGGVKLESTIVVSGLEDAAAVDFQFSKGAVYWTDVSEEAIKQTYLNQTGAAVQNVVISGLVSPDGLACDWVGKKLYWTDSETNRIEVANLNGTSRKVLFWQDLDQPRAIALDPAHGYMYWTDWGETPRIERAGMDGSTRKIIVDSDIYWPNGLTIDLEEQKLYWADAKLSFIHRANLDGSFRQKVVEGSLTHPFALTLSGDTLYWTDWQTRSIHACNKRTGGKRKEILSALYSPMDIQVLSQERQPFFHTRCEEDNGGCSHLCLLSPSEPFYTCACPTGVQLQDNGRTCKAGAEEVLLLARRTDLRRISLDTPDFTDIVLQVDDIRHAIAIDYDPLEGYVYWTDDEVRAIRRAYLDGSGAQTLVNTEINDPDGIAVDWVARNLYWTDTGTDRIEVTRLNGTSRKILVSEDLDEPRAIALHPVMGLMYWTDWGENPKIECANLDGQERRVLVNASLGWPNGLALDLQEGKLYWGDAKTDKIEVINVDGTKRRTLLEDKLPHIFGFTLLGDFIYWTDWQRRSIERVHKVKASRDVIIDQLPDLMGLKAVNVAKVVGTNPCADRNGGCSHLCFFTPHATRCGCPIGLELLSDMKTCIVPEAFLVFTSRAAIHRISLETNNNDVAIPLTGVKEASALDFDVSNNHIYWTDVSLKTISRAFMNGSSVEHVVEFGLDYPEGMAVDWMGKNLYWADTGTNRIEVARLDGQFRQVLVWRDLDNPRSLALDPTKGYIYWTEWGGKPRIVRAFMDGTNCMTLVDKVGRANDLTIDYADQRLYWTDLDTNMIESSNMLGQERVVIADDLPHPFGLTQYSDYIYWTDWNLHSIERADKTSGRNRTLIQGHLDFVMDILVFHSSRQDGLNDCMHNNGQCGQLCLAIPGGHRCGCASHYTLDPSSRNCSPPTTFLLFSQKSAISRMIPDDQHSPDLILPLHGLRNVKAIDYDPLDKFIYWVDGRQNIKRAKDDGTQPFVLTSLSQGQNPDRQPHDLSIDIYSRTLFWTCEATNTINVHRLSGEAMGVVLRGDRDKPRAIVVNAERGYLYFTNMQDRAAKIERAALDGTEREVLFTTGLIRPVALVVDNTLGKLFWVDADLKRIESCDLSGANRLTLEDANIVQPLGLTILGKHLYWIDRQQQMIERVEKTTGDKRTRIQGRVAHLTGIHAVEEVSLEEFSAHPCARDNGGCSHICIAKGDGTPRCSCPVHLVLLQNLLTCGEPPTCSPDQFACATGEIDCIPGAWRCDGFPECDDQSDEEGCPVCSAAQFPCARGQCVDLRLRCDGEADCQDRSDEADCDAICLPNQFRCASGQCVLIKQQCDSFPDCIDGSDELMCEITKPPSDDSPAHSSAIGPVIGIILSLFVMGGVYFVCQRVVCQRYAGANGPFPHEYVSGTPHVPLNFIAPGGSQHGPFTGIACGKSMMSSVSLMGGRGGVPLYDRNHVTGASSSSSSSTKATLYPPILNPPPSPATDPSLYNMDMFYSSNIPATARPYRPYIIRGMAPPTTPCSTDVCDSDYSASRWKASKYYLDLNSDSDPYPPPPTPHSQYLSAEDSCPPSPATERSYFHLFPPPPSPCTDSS
# Description: as §3
# [3] = tested on: Wnt signaling; experiment: TCF/LEF-luc reporter assay in Wnt-3A-treated HEK293 cells; assay type: cell-based; conditions: Wnt3A conditioned medium plus 500 nM, 16 hours at 37° C.
# Description: HEK293 cells were plated into six-well plates. For each well, 0.1 μg of the TOP-FLASHTCF luciferase construct (Upstate Biotechnology) was cotransfected with 0.8 μg Mesd-expressing vector, 0.8 μg Mesd mutant-expressing vector, or empty vector. A β-galactosidase-expressing vector (Promega, Madison, Wis.) was included as an internal control for transfection efficiency. After 48 hours, cells were lysed and both luciferase and β-galactosidase activities were determined with enzyme assay kits (Promega). The luciferase activity was determined with a luminometer using the Dual Luciferase Assay system (Promega). Luciferase activity was normalized to the activity of the β-galactosidase.
# In these experiments, transfected cells were treated without Wnt-3A or with Wnt-3A plus the indicated inhibitors (Mesd and/or Dkk1) for 16 hours at 37° C. Wnt signaling was measured by quantifying the luciferase activity using a live cell imaging system.
# [4] = molecular target: T1, LRP6; experiment: 125I-Mesd cell surface binding to LRP6-transduced HT1080 cells; conditions: LRP6-transduced HT1080 cells
# Description: as §1
# (A) Time course of ^125I-Mesd (5 nM) binding to LRP6-transduced HT1080 cells and the control cells. Assay was carried out for the indicated periods at 4° C. in the absence (total) or presence of 500 nM Mesd (non-specific). (B) Saturation binding of ^125I-Mesd to LRP6-transduced HT1080 cells and the control cells. Assay was carried out at indicated concentrations for 3 hours at 4° C. in the absence (total) or presence (non-specific) of 500 nM Mesd. (C) Scatchard plots of data in B. All values are the average of triple determinations with the s.d. indicated by error bars.
# as §2
# To analyze the Mesd sequences that are required for Mesd to bind to mature LRP6 at the cell surface with high affinity, sequences were compared between mouse Mesd and its homologs from different species. […] We thus generated two truncated Mesd mutants lacking either the N-terminal region, MESD (12-195), or both the N-terminal and C-terminal regions, Mesd (12-155) (FIG. 3A). The ability of these mutants to bind to cell surface LRP6 was then assessed.
# In this example, a truncated Mesd mutant containing the last 45 amino acids of C-terminal region was generated (FIG. 3A) and its binding affinity for LRP6 was then analyzed. […] (A) Binding analyses of ^125I-Mesd and its mutant Mesd (150-195) (5 nM) to LRP6-transduced HT1080 cells and control cells. (B) Binding analyses of ^125I-Mesd and its mutant Mesd (150-195) (5 nM) to LRP6-transduced HT1080 cells. Assays were carried out for 3 hours at 4° C. in the absence or presence of 500 nM Mesd or its mutant. Values are the means of triple determinations with the s.d. indicated by error bars.
# LRP6-mediated Mesd uptake and degradation was investigated in the experiments illustrated in FIG. 7. (A) LRP6-mediated ^125I-Mesd (5 nM) degradation in LRP6-transduced HT1080 cells and control cells was carried out for 4 hours at 37° C. in the absence or presence of 500 nM Mesd. (B) ^125I-Mesd (5 nM) binding to LRP6-transduced HT1080 cells and the control cells was carried out for 4 hours at 4° C. in the absence or presence of 500 nM Mesd. Values are the means of triple determinations with the s.d. indicated by error bars.
# [5] = molecular target: T1, LRP6; experiment: 125I-DKK1 binding to LRP6; conditions: 500 nM unlabeled, 125I-DKK1 5 nM, 3 hours at 4° C.
# Description: as §2
# RAP is a receptor antagonist for members of the LDLR family, and is able to inhibit the binding of most known ligands of the LDLR family members. DKK1 is an LRP6-specific ligand and antagonist. […] In these experiments, Serum-free conditioned medium was harvested from HEK293 cells transiently transfected with cDNA for human Myc-DKK1 and allowed to bind to LRP6-transduced HT1080 cells (B,C) and control cells (A) in the absence (A,B) or presence (C) of 1 μM Mesd. Cell-surface-bound Myc-tagged DKK proteins were fixed and detected by immunofluorescence staining with anti-Myc antibody. (D) DKK1 binding to cell surface LRP6 is inhibited by Mesd. Binding of 125I-DKK1 (5 nM) to LRP6-transduced HT1080 cells or the control cells was carried out for 3 hours at 4° C. in the absence (total) or presence of 500 nM RAP or 500 nM Mesd. […]
# [6] = molecular target: T1, LRP6; experiment: 125I-RAP binding to LRP6-transduced HT1080 cells; conditions: 125I-RAP 5 nM, 4 hours at 4° C.
# Description: as §2
# Receptor-associated protein (RAP) binds with high affinity to LRP, megalin, VLDLR and apoER2, and with a lower affinity to the LDLR (Bu, G., Int. Rev. Cytol. 209, 79-116. 2001). To determine whether RAP and Mesd bind to identical, overlapping, or different sites on the receptors, we performed binding and competition analysis of these two chaperones with HT1080 cells stably expressing LRP6.
# In FIG. 8A, binding of ^125I-RAP (5 nM) to LRP6-transduced HT1080 cells and the control cells was carried out for 4 hours at 4° C. in the absence (total) or presence of 500 nM RAP, or 500 nM Mesd. In FIG. 8B, binding of^125I-Mesd (5 nM) to LRP6-transduced HT1080 cells was carried out for 2 hours at 4° C. in the absence (total) or presence of various concentrations of RAP or 500 nM Mesd. […]
# [7] = molecular target: T1, LRP6; experiment: LRP6-mediated 125I-Mesd degradation in LRP6-transduced HT1080 cells; assay type: cell-based; conditions: 500 nM unlabeled competitor, 4 hours at 37° C.
# Description: Ligand degradation was performed using the methods as described in Li, Y., et al., J. Biol. Chem. 275: 17187-17194, 2000. Briefly, 2×10^5 cells were seeded into 12-well dishes 1 day prior to assay. Pre-warmed assay buffer (minimal Eagle's medium containing 0.6% BSA with radioligand, 0.6 ml/well) was added to cell monolayers in the absence or the presence of unlabeled 500 nM RAP or 500 nM Mesd, followed by incubation for 4 hours at 37° C. Thereafter, the medium overlying the cell monolayers was removed and proteins were precipitated by addition of BSA to 10 mg/ml and trichloroacetic acid to 20%. Degradation of radioligand was defined as the appearance of radioactive fragments in the overlying medium that were soluble in 20% trichloroacetic acid. Kinetic analysis of endocytosis LRP6-transduced HT1080 cells were plated in 12-well plates at a density of 2×10^5 cells/well and used after overnight culture. Cells were rinsed twice in ice-cold assay buffer (minimal Eagle's medium containing 0.6% BSA), and ^125I-anti-HA IgG was added at 1 nM final concentration in cold assay buffer (0.5 ml/well). The binding of ^125I-anti-HA IgG was carried out at 4° C. for 90 minutes with gentle rocking Unbound ^125I-anti-HA IgG was removed by washing cell monolayers three times with cold assay buffer. Ice-cold stop/strip solution (0.2 M acetic acid, pH 2.6, 0.1 M NaCl) was added to one set of plates without warming up and kept on ice. The remaining plates were then placed in a 37° C. water bath and 0.5 ml assay buffer prewarmed to 37° C. was quickly added to cell monolayers to initiate internalization. After each time point, the plates were quickly placed on ice and the assay buffer was replaced with cold stop/strip solution. ^125I-anti-HA IgG that remained on the cell surface was stripped by incubation of cell monolayers with cold stop/strip solution for a total of 20 minutes (0.75 ml for 10 minutes, twice) and counted. Cell monolayers were then solubilized with low-SDS lysis buffer and counted. […] The fraction of internalized ^125I-anti-HA IgG after each time point was calculated and plotted. […]
# [8] = molecular target: T1, LRP6; experiment: LRP6-mediated 125I-DKK1 degradation in LRP6-transduced HT1080 cells; assay type: cell-based; conditions: 500 nM unlabeled, 4 hours at 37° C.
# Description: Ligand degradation was performed using the methods as described in Li, Y., et al., J. Biol. Chem. 275: 17187-17194, 2000. Briefly, 2×10^5 cells were seeded into 12-well dishes 1 day prior to assay. Pre-warmed assay buffer (minimal Eagle's medium containing 0.6% BSA with radioligand, 0.6 ml/well) was added to cell monolayers in the absence or the presence of unlabeled 500 nM RAP or 500 nM Mesd, followed by incubation for 4 hours at 37° C. Thereafter, the medium overlying the cell monolayers was removed and proteins were precipitated by addition of BSA to 10 mg/ml and trichloroacetic acid to 20%. […] After each time point, the plates were quickly placed on ice and the assay buffer was replaced with cold stop/strip solution. ^125I-anti-HA IgG that remained on the cell surface was stripped by incubation of cell monolayers with cold stop/strip solution for a total of 20 minutes (0.75 ml for 10 minutes, twice) and counted. Cell monolayers were then solubilized with low-SDS lysis buffer and counted. […] The fraction of internalized ^125I-anti-HA IgG after each time point was calculated and plotted.
# RAP is a receptor antagonist for members of the LDLR family, and is able to inhibit the binding of most known ligands of the LDLR family members. […] Cell-surface-bound Myc-tagged DKK proteins were fixed and detected by immunofluorescence staining with anti-Myc antibody. […]
molecule,measurement,setting,value
KGGGSKEKNKTKPEKAKKKEGDPKPRASKEDNRAGSR [SEQ ID NO: 20],Reduction of binding of 125I-Mesd to LRP6,"[1]; FIG. 10C, compared with LRP5",even greater reduction
same,Reduction in binding of 125I-DKK1 to LRP5,[2],small but significant reduction
KGGGSKEKNKTKPEKAKKKEGDRKPRASKEDNRAGSR [Mesd WT peptide],Inhibition of Wnt signaling (luciferase activity),[3],moderately inhibit
QMYPGKGGGSKEKNKTKPEKAKKKEGDPKPRASKEDNRAGSRREDL [Mesd (150-195)],Inhibition of Wnt signaling (luciferase activity),[3],moderately inhibit
same,Binding of truncated Mesd mutants to cell surface LRP6,[4],necessary and sufficient for LRP6 binding
"RAP: Human recombinant 39 kDa receptor-associated protein, expressed in a GST expression vector [reference compound]",Effect on increased 125I-DKK1 binding of LRP6-expressing HT1080 cells,[5],not
same,Increase of RAP binding in LRP6 expressing HT1080 cells compared to control cells,[6],~20%
same,Inhibition of 125I-Mesd degradation,[7],only partially
same,Inhibition of 125I-Mesd binding to cell surface LRP6,"[1]; 500 nM unlabeled competitor, 125I-Mesd 5 nM, 2 hours at 4° C.",~60%
same,Effect on increased 125I-DKK1 degradation of LRP6-expressing HT1080 cells,[8],not
B1,Binding of truncated Mesd mutants to cell surface LRP6,[4],no effect on LRP6 binding
B2,Binding of truncated Mesd mutants to cell surface LRP6,[4],completely abolished LRP6 binding
